Measurements from patent publication US20230250154A1 (CYTONICS, published 2023).

T1: MMP2 (human, UniProt P08253 110-660, limits assumed)
T1 sequence (looked up): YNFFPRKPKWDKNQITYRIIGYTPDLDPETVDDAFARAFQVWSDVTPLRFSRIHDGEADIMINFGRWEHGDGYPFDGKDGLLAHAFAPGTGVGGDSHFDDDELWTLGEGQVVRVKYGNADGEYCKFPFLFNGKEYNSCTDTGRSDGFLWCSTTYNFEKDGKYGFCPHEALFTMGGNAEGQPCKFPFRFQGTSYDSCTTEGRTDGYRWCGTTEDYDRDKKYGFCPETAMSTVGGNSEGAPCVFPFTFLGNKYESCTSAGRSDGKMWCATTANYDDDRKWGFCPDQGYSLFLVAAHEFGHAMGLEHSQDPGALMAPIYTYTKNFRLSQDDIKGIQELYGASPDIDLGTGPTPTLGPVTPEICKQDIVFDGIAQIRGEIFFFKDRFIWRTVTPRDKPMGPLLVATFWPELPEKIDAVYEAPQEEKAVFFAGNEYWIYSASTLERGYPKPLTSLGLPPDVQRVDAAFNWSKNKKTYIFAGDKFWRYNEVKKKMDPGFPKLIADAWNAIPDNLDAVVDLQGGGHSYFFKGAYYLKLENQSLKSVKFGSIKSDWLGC

T2: MMP1 (human, UniProt P03956 100-469, limits assumed)
T2 sequence (looked up): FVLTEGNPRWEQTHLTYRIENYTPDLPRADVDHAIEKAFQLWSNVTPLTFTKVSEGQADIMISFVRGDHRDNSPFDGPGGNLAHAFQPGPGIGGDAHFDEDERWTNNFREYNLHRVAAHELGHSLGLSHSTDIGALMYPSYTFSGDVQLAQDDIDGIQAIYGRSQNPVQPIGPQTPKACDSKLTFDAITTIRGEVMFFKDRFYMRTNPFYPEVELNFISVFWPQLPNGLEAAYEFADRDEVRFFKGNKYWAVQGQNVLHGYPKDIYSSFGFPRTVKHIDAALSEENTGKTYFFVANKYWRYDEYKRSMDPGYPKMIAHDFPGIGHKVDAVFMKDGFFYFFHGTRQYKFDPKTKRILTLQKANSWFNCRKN

T3: MMP7 (UniProt P09237 95-267, limits assumed)
T3 sequence (looked up): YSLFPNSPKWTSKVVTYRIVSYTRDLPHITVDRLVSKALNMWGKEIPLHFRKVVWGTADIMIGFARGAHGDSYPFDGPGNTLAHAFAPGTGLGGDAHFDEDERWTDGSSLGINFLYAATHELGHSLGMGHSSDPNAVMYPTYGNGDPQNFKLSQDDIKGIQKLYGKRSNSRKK

T4: Cathepsin G (UniProt P08311 21-244)
T4 sequence (looked up): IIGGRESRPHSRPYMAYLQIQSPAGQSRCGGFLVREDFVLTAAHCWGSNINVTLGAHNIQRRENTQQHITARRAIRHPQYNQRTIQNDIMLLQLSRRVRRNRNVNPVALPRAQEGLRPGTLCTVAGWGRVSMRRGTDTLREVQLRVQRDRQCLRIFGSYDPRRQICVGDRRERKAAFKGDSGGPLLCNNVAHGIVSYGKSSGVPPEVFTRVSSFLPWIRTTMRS

T5: ADAMTS4 (human, UniProt O75173 213-685, limits assumed)
T5 sequence (looked up): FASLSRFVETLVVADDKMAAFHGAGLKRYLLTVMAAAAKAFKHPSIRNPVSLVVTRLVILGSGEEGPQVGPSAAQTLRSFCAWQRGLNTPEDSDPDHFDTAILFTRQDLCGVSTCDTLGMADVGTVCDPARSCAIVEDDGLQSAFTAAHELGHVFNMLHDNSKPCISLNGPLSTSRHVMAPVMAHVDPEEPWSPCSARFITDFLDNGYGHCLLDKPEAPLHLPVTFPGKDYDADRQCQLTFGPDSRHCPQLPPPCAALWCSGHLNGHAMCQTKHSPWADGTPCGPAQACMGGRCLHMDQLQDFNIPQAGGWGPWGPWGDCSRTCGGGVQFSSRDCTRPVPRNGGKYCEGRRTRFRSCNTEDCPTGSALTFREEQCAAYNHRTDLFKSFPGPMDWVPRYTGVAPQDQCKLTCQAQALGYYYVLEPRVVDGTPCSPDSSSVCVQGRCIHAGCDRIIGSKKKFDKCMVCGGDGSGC

T6: ADAMTS5 (human, UniProt Q9UNA0 262-622, limits assumed)
T6 sequence (looked up): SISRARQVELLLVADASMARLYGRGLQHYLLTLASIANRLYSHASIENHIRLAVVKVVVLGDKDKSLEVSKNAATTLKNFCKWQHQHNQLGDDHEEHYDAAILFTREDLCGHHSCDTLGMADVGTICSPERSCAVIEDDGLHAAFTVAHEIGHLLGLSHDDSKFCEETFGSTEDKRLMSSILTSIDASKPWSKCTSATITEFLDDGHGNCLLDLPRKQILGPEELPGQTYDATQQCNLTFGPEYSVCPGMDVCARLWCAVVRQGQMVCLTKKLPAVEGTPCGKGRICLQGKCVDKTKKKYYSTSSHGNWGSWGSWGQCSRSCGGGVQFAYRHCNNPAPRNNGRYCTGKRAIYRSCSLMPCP


Columns and labels:
Assay in all cases: cell-based or functional assay
MMP2 = target: T1, MMP2
MMP1 = target: T2, MMP1
Elastase = target: Elastase
MMP7 = target: T3, MMP7
Cathepsin G = target: T4, Cathepsin G
MMP13 = MMP13 (human, UniProt P45452 104-471, limits assumed)
MMP3 = MMP3 (human, UniProt P08254 100-477, limits assumed)
MMP3, sequence (P08254 100-477 limits assumed): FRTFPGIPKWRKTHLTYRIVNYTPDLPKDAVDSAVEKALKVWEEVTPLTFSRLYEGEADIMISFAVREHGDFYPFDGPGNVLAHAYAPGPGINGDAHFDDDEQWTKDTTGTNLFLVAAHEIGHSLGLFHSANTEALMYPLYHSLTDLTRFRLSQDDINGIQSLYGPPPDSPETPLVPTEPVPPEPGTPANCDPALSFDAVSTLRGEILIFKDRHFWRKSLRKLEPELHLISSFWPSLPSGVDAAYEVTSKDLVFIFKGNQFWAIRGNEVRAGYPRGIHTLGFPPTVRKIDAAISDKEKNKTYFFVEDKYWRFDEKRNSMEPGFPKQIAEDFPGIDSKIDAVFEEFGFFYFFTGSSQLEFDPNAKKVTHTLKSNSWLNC

MMP8 = MMP8 (human, UniProt P22894 101-467, limits assumed)
MMP8, sequence (P22894 101-467 limits assumed): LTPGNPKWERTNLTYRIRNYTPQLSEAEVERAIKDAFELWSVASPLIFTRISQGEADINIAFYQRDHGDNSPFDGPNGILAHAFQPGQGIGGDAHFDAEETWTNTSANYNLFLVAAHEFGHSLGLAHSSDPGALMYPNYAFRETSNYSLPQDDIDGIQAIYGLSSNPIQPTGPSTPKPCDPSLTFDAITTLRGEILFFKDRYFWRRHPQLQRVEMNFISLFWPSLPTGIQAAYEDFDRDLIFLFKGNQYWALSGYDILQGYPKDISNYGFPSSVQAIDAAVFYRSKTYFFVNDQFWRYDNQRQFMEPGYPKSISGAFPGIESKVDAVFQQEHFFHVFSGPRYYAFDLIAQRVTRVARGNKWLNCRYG

MMP9 = MMP9 (human, UniProt P14780 107-707, limits assumed)
MMP9, sequence (P14780 107-707 limits assumed): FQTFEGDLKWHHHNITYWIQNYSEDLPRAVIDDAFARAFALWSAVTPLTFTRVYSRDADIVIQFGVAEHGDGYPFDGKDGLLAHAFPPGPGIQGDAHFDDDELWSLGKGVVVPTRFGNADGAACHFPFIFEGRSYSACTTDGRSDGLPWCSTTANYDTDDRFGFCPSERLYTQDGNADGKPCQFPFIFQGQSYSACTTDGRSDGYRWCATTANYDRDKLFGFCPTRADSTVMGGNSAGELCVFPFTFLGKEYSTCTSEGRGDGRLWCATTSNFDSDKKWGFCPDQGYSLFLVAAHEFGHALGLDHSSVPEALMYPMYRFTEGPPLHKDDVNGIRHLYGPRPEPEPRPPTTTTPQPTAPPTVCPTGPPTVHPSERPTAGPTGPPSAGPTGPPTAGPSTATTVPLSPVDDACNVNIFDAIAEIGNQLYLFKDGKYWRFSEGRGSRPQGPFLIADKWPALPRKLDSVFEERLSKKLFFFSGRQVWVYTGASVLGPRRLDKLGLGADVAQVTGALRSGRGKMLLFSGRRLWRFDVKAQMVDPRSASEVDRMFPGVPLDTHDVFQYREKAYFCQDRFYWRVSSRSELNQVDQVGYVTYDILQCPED

ADAMTS4 = target: T5, ADAMTS4
ADAMTS5 = target: T6, ADAMTS5

Row | Protease Inhibition (% of WT) (MMP2) | Protease Inhibition (% of WT) (MMP1) | Protease Inhibition (% of WT) (Elastase) | Protease Inhibition (% of WT) (MMP7) | Protease Inhibition (% of WT) (Cathepsin G) | Protease Inhibition (% of WT) (MMP13) | Protease Inhibition (% of WT) (MMP3) | Protease Inhibition (% of WT) (MMP8) | Protease Inhibition (% of WT) (MMP9) | Protease Inhibition (% of WT) (ADAMTS4) | Protease Inhibition (% of WT) (ADAMTS5) | Binder
1 | 58 % of WT | 117 % of WT | 131 % of WT | 147 % of WT | 157 % of WT | 145 % of WT | 127 % of WT | 81 % of WT | 39 % of WT | 222 % of WT | 79 % of WT | Variant A2M, bait region SEQ ID NO 7 (other) SVSGKPQYMVLVPSLLHTETTEKGCVLLSYLNETVTVSASLESVRGNRSLFTDLEAENDVLHCVAFAVPKSSSNEEVMFLTVQVKGPTQEFKKRTTVMVKNEDSLVFVQTDKSIYKPGQTVKFRVVSMDENFHPLNELIPLVYIQDPKGNRIAQWQSFQLEGGLKQFSFPLSSEPFQGSYKVVVQKKSGGRTEHPFTVEEFVLPKFEVQVTVPKIITILEEEMNVSVCGLYTYGKPVPGHVTVSICRKYSDASDCHGEDSQAFCEKFSGQLNSHGCFYQQVKTKVFQLKRKEYEMKLHTEAQIQEEGTVVELTGRQSSEITRTITKLSFVKVDSHFRQGIPFFGQVRLVDGKGVPIPNKVIFIRGNEANYYSNATTDEHGLVQFSINTTNVMGTSLTVRVNYKDRSPCYGYQWVSEEHEEAHHTAYLVFSPSKSFVHLEPMSHELPCGHTQTVQAHYILNGGTLLGLKKLSFYYLIMAKGGIVRTGTHGLLVKQEDMKGHFSISIPVKSDIAPVARLLIYAVLPTGDVIGDSAKYDVENCLANKVDLSFSPSQSLPASHAHLRVTAAPQSVCALRAVDQSVLLMKPDAELSASSVYNLLPEKDLTGFPGPLNDQDDEDCINRHNVYINGITYTPVSSTNEKDMYSFLEDMGLKAFTNSKIRKPKMCPQLEHGPEGEGEGEGIPENFFGVRYSEDLVVQISELEGRGSVEEPHTKLRKYFPETWIWDLVVVNSAGVAEVGVTVPDTITEWKAGAFCLSEDAGLGISSTASLRAFQPFFVELTMPYSVIRGEAFTLKATVLNYLPKCIRVSVQLEASPAFLAVPVEKEQAPHCICANGRQTVSWAVTPKSLGNVNFTVSAEALESQELCGTEVPSVPEHGRKDTVIKPLLVEPEGLEKETTFNSLLCPSGGEVSEELSLKLPPNVVEESARASVSVLGDILGSAMQNTQNLLQMPYGCGEQNMVLFAPNIYVLDYLNETQQLTPEIKSKAIGYLNTGYQRQLNYKHYDGSYSTFGERYGRNQGNTWLTAFVLKTFAQARAYIFIDEAHITQALIWLSQRQKDNGCFRSSGSLLNNAIKGGVEDEVTLSAYITIALLEIPLTVTHPVVRNALFCLESAWKTAQEGDHGSHVYTKALLAYAFALAGNQDKRKEVLKSLNEEAVKKDNSVHWERPQKPKAPVGHFYEPQAPSAEVEMTSYVLLAYLTAQPAPTSEDLTSATNIVKWITKQQNAQGGFSSTQDTVVALHALSKYGAATFTRTGKAAQVTIQSSGTFSSKFQVDNNNRLLLQQVSLPELPGEYSMKVTGEGCVYLQTSLKYNILPEKEEFPFALGVQTLPQTCDEPKAHTSFQISLSVSYTGSRSASNMAIVDVKMVSGFIPLKPTVKMLERSNHVSRTEVSSNHVLIYLDKVSNQTLSLFFTVLQDVPVRDLKPAIVKVYDYYETDEFAIAEYNAPCSKDLGNADYKDDDDKGASHHHHHH
2 | 33 % of WT | 48 % of WT | 39 % of WT | 64 % of WT | 12 % of WT | 56 % of WT | < 100 % of WT | 28 % of WT | 9 % of WT | 120 % of WT | 97 % of WT | Variant A2M, bait region SEQ ID NO 8 (other) SVSGKPQYMVLVPSLLHTETTEKGCVLLSYLNETVTVSASLESVRGNRSLFTDLEAENDVLHCVAFAVPKSSSNEEVMFLTVQVKGPTQEFKKRTTVMVKNEDSLVFVQTDKSIYKPGQTVKFRVVSMDENFHPLNELIPLVYIQDPKGNRIAQWQSFQLEGGLKQFSFPLSSEPFQGSYKVVVQKKSGGRTEHPFTVEEFVLPKFEVQVTVPKIITILEEEMNVSVCGLYTYGKPVPGHVTVSICRKYSDASDCHGEDSQAFCEKFSGQLNSHGCFYQQVKTKVFQLKRKEYEMKLHTEAQIQEEGTVVELTGRQSSEITRTITKLSFVKVDSHFRQGIPFFGQVRLVDGKGVPIPNKVIFIRGNEANYYSNATTDEHGLVQFSINTTNVMGTSLTVRVNYKDRSPCYGYQWVSEEHEEAHHTAYLVFSPSKSFVHLEPMSHELPCGHTQTVQAHYILNGGTLLGLKKLSFYYLIMAKGGIVRTGTHGLLVKQEDMKGHFSISIPVKSDIAPVARLLIYAVLPTGDVIGDSAKYDVENCLANKVDLSFSPSQSLPASHAHLRVTAAPQSVCALRAVDQSVLLMKPDAELSASSVYNLLPEKDLTGFPGPLNDQDDEDCINRHNVYINGITYTPVSSTNEKDMYSFLEDMGLKAFTNSKIRKPKMCPQLEHGPEGEGEGEGIPENFFGVLYSEDLVVQISELEGRGSVEEPHTKLRKYFPETWIWDLVVVNSAGVAEVGVTVPDTITEWKAGAFCLSEDAGLGISSTASLRAFQPFFVELTMPYSVIRGEAFTLKATVLNYLPKCIRVSVQLEASPAFLAVPVEKEQAPHCICANGRQTVSWAVTPKSLGNVNFTVSAEALESQELCGTEVPSVPEHGRKDTVIKPLLVEPEGLEKETTFNSLLCPSGGEVSEELSLKLPPNVVEESARASVSVLGDILGSAMQNTQNLLQMPYGCGEQNMVLFAPNIYVLDYLNETQQLTPEIKSKAIGYLNTGYQRQLNYKHYDGSYSTFGERYGRNQGNTWLTAFVLKTFAQARAYIFIDEAHITQALIWLSQRQKDNGCFRSSGSLLNNAIKGGVEDEVTLSAYITIALLEIPLTVTHPVVRNALFCLESAWKTAQEGDHGSHVYTKALLAYAFALAGNQDKRKEVLKSLNEEAVKKDNSVHWERPQKPKAPVGHFYEPQAPSAEVEMTSYVLLAYLTAQPAPTSEDLTSATNIVKWITKQQNAQGGFSSTQDTVVALHALSKYGAATFTRTGKAAQVTIQSSGTFSSKFQVDNNNRLLLQQVSLPELPGEYSMKVTGEGCVYLQTSLKYNILPEKEEFPFALGVQTLPQTCDEPKAHTSFQISLSVSYTGSRSASNMAIVDVKMVSGFIPLKPTVKMLERSNHVSRTEVSSNHVLIYLDKVSNQTLSLFFTVLQDVPVRDLKPAIVKVYDYYETDEFAIAEYNAPCSKDLGNADYKDDDDKGASHHHHHH
